Measurements taken from patent US10766960 (dated 2020).
Positions count from the first letter of the chain named. Where two headings read alike, the source gives them in different places. One block for each binder: values may come before it.

Experiments:
Test in all cases: SPR
FcgRIIb [1] = target: T1, FcgRIIb (human, UniProt P31994)
T1 chain: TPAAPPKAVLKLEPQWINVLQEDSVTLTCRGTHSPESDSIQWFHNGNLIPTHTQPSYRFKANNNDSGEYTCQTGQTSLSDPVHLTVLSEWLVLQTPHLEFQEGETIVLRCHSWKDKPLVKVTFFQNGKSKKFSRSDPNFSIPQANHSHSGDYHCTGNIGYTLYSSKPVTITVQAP

FcgRIIa R = target: T2, FcgRIIa R (human, UniProt P12318)
T2 chain: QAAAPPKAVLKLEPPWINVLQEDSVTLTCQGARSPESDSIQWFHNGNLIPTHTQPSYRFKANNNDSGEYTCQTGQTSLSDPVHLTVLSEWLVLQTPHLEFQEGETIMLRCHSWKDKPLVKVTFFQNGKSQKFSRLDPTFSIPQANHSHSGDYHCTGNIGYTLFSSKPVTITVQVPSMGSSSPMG

FcgRIIIa F [2] = target: T3, FcgRIIIa F (human, UniProt P08637)
FcgRIIa H = target: T4, FcgRIIa H (human, UniProt P12318)
T4 chain: T2 chain with R134H

FcgRIIIa V = FcgRIIIa V (human, UniProt P08637)
FcgRIIb [3] = target: T1, FcgRIIb
FcgRIa = target: T5, FcgRIa (human, UniProt P12314)
T5 chain: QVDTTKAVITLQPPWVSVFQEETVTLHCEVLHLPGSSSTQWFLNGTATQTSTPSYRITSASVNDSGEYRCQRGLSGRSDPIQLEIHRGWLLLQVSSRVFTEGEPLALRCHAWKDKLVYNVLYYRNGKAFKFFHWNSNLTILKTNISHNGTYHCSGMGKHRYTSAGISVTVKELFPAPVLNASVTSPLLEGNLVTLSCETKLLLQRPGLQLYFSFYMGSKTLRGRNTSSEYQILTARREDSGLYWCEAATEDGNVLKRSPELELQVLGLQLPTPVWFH

FcgRIIIa F [4] = target: T3, FcgRIIIa F; remark: listed apart in the source
FcgRIIIa F [5] = target: T3, FcgRIIIa F; remark: listed apart in the source
FcgRIIIa F [6] = target: T3, FcgRIIIa F; remark: listed apart in the source
FcgRIIIa F [7] = target: T3, FcgRIIIa F; remark: listed apart in the source
FcgRIIIa F [8] = target: T3, FcgRIIIa F; remark: listed apart in the source

T3 sequence (P08637 17-208): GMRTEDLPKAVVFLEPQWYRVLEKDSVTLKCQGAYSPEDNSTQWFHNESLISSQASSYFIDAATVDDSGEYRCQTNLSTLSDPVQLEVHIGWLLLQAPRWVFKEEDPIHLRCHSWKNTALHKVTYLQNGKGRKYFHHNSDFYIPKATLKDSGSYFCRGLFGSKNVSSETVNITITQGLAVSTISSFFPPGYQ
FcgRIIIa V, sequence (P08637 17-208 F176V): as the sequence (P08637 17-208) above, with F160V counted along it

Kd (FcgRIIb [1]): 6000 nM
Kd (FcgRIIa R): 880 nM
Kd (FcgRIIIa F [2]): 1400 nM
Kd (FcgRIIa H): 660 nM
Kd (FcgRIIIa V): 310 nM
Kd (FcgRIIb [3]): 6100 nM
Kd (FcgRIa): 0.23 nM
B1: H240-G1d/L73-k0 (antibody)
chain 1: not shown
chain 2: DIQMTQSPSSLSASVGDRVTITCRASQDIHKYIAWYQQKPGQAPRLLIQYTSTLQPGVPSRFSGSGSGTDYTFTISSLQPEDIATYYCLQYEQLRTFGGGTKVEIKRTVAAPSVFIFPPSDEQLKSGTASVVCLLNNFYPREAKVQWKVDNALQSGNSQESVTEQDSKDSTYSLSSTLTLSKADYEKHKVYACEVTHQGLSSPVTKSFNRGEC

Kd (FcgRIIb [1]): 2600 nM
Kd (FcgRIIIa F [4]): 79 nM
Kd (FcgRIIa R): 490 nM
Kd (FcgRIIIa F [2]): 78 nM
Kd (FcgRIIa H): 780 nM
Kd (FcgRIIIa V): 6.9 nM
Kd (FcgRIa): 0.43 nM
B2: H240-afucosyl_G1d/L73-k0 (antibody)
chain 1: not shown
chain 2: B1 chain 2

Kd (FcgRIIIa F [5]): 3.3 nM
B3: GpH7-TA7/GpH7-TA58/GpL16-k0 (antibody)
chain 1: QVQLVQSGAEVKKPGASVTVSCKASGYTFTDYEMHWIRQPPGEGLEWIGAIDPKTGDTAYSESFQDRVTLTADKSTSTAYMELSSLTSEDTAVYYCTRFYSYTYWGQGTLVTVSSASTKGPSVFPLAPSSKSTSGGTAALGCLVKDYFPEPVTVSWNSGALTSGVHTFPAVLQSSGLYSLSSVVTVPSSSLGTQTYICNVNHKPSNTKVDKKVEPKSCDKTHTCPPCPAPEYLWGPSVFLFPPKPKDTLMISRTPEVTCVVVDVSHEDPEVKFNWYVDGVEVHNAKTKPREEQYNATYRVVSVLTVLHQDWLNGKEYKCKVSNKALPAPIEKTISKAKGQPREPQVYTLPPSRKELTKNQVSLTCLVKGFYPSDIAVEWESNGQPENNYKTTPPVLDSDGSFFLYSKLTVDKSRWQQGNVFSCSVMHEALHNRYTQKSLSLSP
chain 2: B3 chain 1 with Y232L, W234G, S237D, Y294W, A296S, A328L, I330E, K354D, R433H, K437E
chain 3: DIVMTQSPLSLPVTPGEPASISCQASESLVHSNRNTYLHWYLQKPGQSPQLLIYKVSNRFSGVPDRFSGSGSGTDFTLKISRVEAEDVGVYYCSQNTHVPPTFGQGTKVEIERTVAAPSVFIFPPSDEQLKSGTASVVCLLNNFYPREAKVQWKVDNALQSGNSQESVTEQDSKDSTYSLSSTLTLSKADYEKHKVYACEVTHQGLSSPVTKSFNRGEC

Kd (FcgRIIIa F [6]): 230 nM
B4: GpH7-A44/GpH7-B80/GpL16-k0 (antibody)
chain 1: B3 chain 1 with Y232L, W234G, A296S, I330E
chain 2: not shown
chain 3: B3 chain 3

Kd (FcgRIIIa F [6]): 470 nM
B5: GpH7-A5/GpH7-B80/GpL16-k0 (antibody)
chain 1: not shown
chain 2: not shown
chain 3: B3 chain 3

Kd (FcgRIIIa F [7]): 3.4 nM
B6: GpH7-TA7/GpH7-TA50/GpL16-k0 (antibody)
chain 1: B3 chain 1
chain 2: B3 chain 1 with Y232L, W234G, S237D, A296S, A328L, I330E, K332G, K354D, R433H, K437E
chain 3: B3 chain 3

Kd (FcgRIIIa F [6]): 370 nM
B7: GpH7-A44/GpH7-B3/GpL16-k0 (antibody)
chain 1: B3 chain 1 with Y232L, W234G, A296S, I330E
chain 2: not shown
chain 3: B3 chain 3

Kd (FcgRIIIa F [5]): 2.3 nM
B8: GpH7-TA52/GpH7-B78/GpL16-k0 (antibody)
chain 1: B3 chain 1 with Y294W
chain 2: B3 chain 1 with Y232L, W234G, S237D, A296S, A328L, I330E, K354D, R433H, K437E
chain 3: B3 chain 3

Kd (FcgRIIIa F [7]): 7.5 nM
B9: GpH7-TA40/GpH7-B78/GpL16-k0 (antibody)
chain 1: B3 chain 1 with K332G
chain 2: B3 chain 1 with Y232L, W234G, S237D, A296S, A328L, I330E, K354D, R433H, K437E
chain 3: B3 chain 3

Kd (FcgRIIIa F [8]): 1.3 nM
B10: GpH7-TA22/GpH7-B78/GpL16-k0 (antibody)
chain 1: B3 chain 1 with S237D
chain 2: B3 chain 1 with Y232L, W234G, S237D, A296S, A328L, I330E, K354D, R433H, K437E
chain 3: B3 chain 3
